In one data set the target is T1, Cathepsin D (Homo sapiens, UniProt P07339).
T1 construct: purchased Biomol Se-199
The data set is described as follows: Cathepsin D enzyme assay. Type of data set: biochemical. The following applies: purified Cathepsin D, pH 4.5, 37° C.; read-out: IC50. The procedure: For quantification of Cathepsin D inhibitory activity, an enzymatic assay was used that measures the turnover of a quenched, fluorescenctly-labeled, Cathepsin D-cleavable, peptide substrate over time.
Specifically, 13 ng of purified Cathepsin D enzyme (Biomol; Cat.No. Se-199) was administered per well of a 96 well plate, substance/inhibitor of interest was added and the mixture incubated for 10 min. at 37° C. Then, the enzymatic reaction was started by addition of fluorescenctly-labeled, Cathepsin D-Substrat ([…] (7-Methoxycoumarin-4-yl)-acetyl-Pro-Leu-Gly-Leu-(3 [2,4-dinitrophenyl]-L-2,3-diaminopropionyl)-Ala-Arg-NH2 (Bachem M-1895). The reaction volume amounts to 30 μl and contains 50 mM acetic acid, 200 mM NaCl and 0.003% Brij 35 and was adjusted to pH 4.5 with acetic acid. By cleavage of the peptide chain, the […] is released and the emission of fluorescence dye is measured using excitation/emission wavelengths ([…]) on a Tecan Spectrafluor Plus—instrument at 37° C. for 10 min. For the determination of the compound dose response, a 10 mM DMSO stock solution was diluted and tested in a ten-point, three-fold dilution series run in duplicate beginning at 30 μM final concentration. Data were analyzed using a four-parameter curve fit with a fixed minimum and maximum experimentally defined as the average positive and negative controls on each plate.

Data set [1] concerns pig articular cartilage explants. Kind of data set: Ex vivo binding assay with pig articular cartilage explants. The following applies: 5 μM probe, 24 h incubation, washed; integrated fluorescence.
Protocol: To evaluate the cartilage targeting affinities of these five DOTAM-derived compounds, we performed an ex vivo binding assay of these Cy 5.5-labeled probes with pig articular cartilage explants. In these ex vivo experiments, whole-depth pig articular cartilage blocks were incubated with 5 μM of each probe for 24 h, washed 3 times for 10 min each with PBS buffer at 37° C. to remove non-binding probes, then imaged using fluorescent microscopy. The intensity of the near infrared fluorescent signal from Cy 5.5 presents the relevant amount of these probes remaining in the cartilage.
The nature of the next data set: in vivo. To be noted: male, C57BL/6J, mouse, in vivo. As to the method:
(§1) Measurement of In Vivo Half Life of Compounds in Mice
(§2) Male C57 BL/6J mice aged 10 weeks were purchased from Harlan Laboratories (Blackthorn, Bicester, UK). Mice were housed in groups of 6 in individually vented cages, maintained at 21±2° C. on a 12-hour light/dark cycle and with food provided ad libitum. All experimental protocols were performed in compliance with the UK Animals (Scientific Procedures) Act 1986 regulations for the handling and use of laboratory animals (Home Office project license PPL no: 70/7288).
(§3) One hundred nanomoles of each of the compounds were injected into the intra-articular space following induction of anaesthesia by gaseous anaesthetic (2% isofluorane and O2). Planar fluorescence images of the knee joints was captured at the time points indicated by capturing the emission at 700 nm for 1 min after exposure at 630 nm under gaseous anaesthesia (2.5% isofluorane and O2) in a Kodak In Vivo FX Pro (Carestream, Woodbridge, USA). Planar X-ray images were obtained by exposure to X-rays for 20 seconds for co-registration purposes.
(§4) To calculate the half lives of the compounds in the joint, fluorescence images were analysed using the Carestream MI software (version 5.1). Circular regions of interest (ROI) of 25 pixels in diameter were defined to encompass the knee joint, which was defined by co-registration of X-ray images. The mean fluorescence intensity (MFI) of the ROI was obtained. Fluorescence images shown are false coloured using the rainbow spectrum, with purple being the lowest value and red being the highest value, and the range indicated in the figures. […] All statistical analysis was carried out using the Prism Software (Graphpad, La Jolla, USA).
(§5) We further evaluated the binding capacity of the probes to cartilage in vivo using optical imaging. 0.1 μmol of each of the compounds were injected intra-articularly into the knees of mice, and in vivo fluorescent microscopy and X-ray were used to quantify localization and retention. The decay in signal was fitted to a two-phase exponential decay model to describe the rapid clearance of unbound probe from the joint and the slow clearance of bound probe from the cartilage (n=5).

In the next data set the test system is knee joints of mice. The data set is described as follows: in vivo. As to the method:
as §1, §2, §3, §4, §5

The test system of data set [2] is pig articular cartilage explants. The data set is described as follows: Ex vivo GAG release model with pig articular cartilage explants. Format: cell-based. To be noted: explants pre-incubated with 1 μM inhibitor 24 h, then washed.
Data set [3] is described as follows: Solubility in phosphate buffer. Type of data set: physicochemical. The following applies: phosphate buffer at pH 7.4.
The mark [4] stands for this setting: 100 nmol, First Half Life (h), 100 nmol intra-articular, mouse knee, two phase decay fit of fluorescence, fast half life (t1), loss from the joint space.
Where [5] appears, read: 100 nmol, Terminal Half Life (h), 100 nmol intra-articular, mouse knee, two phase decay fit, slower half life (t2, t1/2beta), loss of cartilage-bound compound.

The record followed here is patent US20170050988A1, “DOTAM DERIVATIVES FOR THERAPEUTIC USE” (priority 2013, published 2017).

Values after ≈ are worked out from the molar mass of the structure shown. “Also recorded” adds a separate entry of the source. Starred links: 1 amine or outer side, 2 acyl side, 3 side chain; linkers in the order of their positions; H or OH if unused. Positions of bridges follow the written chain, without caps; N, C: chain ends. Non-standard residues stand in square brackets, D forms with d. Residues, ends and D or L forms follow the SMILES beside them. Chains are numbered I, II in the order given. *: point of attachment. X1 = CN1/C(=C/C=C/C=C/C2=[N+](CCCCCC(=O)NCCOCCOCCNC(=O)CN3CCN(CC(=O)NCCOCCOCCN[*:1])CCN(CC(=O)NCCOCCOCCN[*:3])CCN(CC(=O)NCCOCCOCCN[*:2])CC3)c3ccc4ccccc4c3C2(C)C)C(C)(C)c2c1ccc1ccccc21; X4 = CN1/C(=C/C=C/C=C/C2=[N+](CCCCCC(=O)NCCOCCOCCN*)c3ccc4ccccc4c3C2(C)C)C(C)(C)c2c1ccc1ccccc21; Sta = CC(C)C[C@H](N)[C@@H](O)CC(=O)O; Isovaleryl = CC(C)CC(=O)*

T1 sequence (P07339 65-412): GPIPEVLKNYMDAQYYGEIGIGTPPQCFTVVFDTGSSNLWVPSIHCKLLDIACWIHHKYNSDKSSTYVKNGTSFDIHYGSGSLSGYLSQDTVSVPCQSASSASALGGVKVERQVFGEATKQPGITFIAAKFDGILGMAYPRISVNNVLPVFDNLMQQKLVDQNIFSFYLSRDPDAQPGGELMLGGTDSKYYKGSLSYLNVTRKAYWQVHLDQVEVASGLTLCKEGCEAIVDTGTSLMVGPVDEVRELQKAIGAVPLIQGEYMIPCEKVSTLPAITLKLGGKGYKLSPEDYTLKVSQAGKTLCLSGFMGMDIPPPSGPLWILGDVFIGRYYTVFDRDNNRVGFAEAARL

Take `CC(C)CC(=O)N[C@H](C(=O)N[C@H](C(=O)N[C@@H](CC(C)C)[C@@H](O)CC(=O)N[C@@H](C)C(=O)N[C@@H](CC(C)C)[C@@H](O)CC(=O)NCCOCCOCCNC(=O)CN1CCN(CC(=O)NCCOCCOCCN)CCN(CC(=O)NCCOCCOCCN)CCN(CC(=O)NCCOCCOCCN)CC1)C(C)C)C(C)C` [HHY-325]: on Cathepsin D, the IC50 (in general, the concentration that inhibits the measured activity by half) came to 2.9 nM.
In the case of `CC(=O)N[C@@H](Cc1c[nH]c2ccccc12)C(=O)N[C@@H](Cc1ccc(O)cc1)C(=O)N[C@@H](CCCNC(=N)N)C(=O)NCC(=O)N[C@@H](CCCNC(=N)N)C(=O)N[C@@H](CC(C)C)C(=O)NCCOCCOCCNC(=O)CN1CCN(CC(=O)NCCOCCOCCN)CCN(CC(=O)NCCOCCOCCN)CCN(CC(=O)NCCOCCOCCNC(=O)CCCCC[N+]2=C(/C=C/C=C/C=C3/N(C)c4ccc5ccccc5c4C3(C)C)C(C)(C)c3c2ccc2ccccc32)CC1` [HHY-312, AcWYRGRL-DOTA-Cy5.5], in data set [1], the “fold mean increase of probe accumulation in cartilage vs non-targeted HHY-306” value worked out at 11.2 fold and the “fold mean increase of probe accumulation in cartilage vs scrambled HHY-322” value came to 6.0 fold. For the same compound, the half-life (usually the time in which the quantity being followed falls by half) in “in vivo” (First Half Life (h)) is 4 h. The compound further had a half-life in the data set “in vivo” (Terminal Half Life (h)) of 210 h. Also, the “Terminal Half Life” value in the data set on knee joints of mice (male, C57BL/6J, mouse, in vivo) is recorded as 210.7 h.
With `CC(=O)N[C@@H](Cc1c[nH]c2ccccc12)C(=O)N[C@@H](Cc1ccc(O)cc1)C(=O)N[C@@H](CCCNC(=N)N)C(=O)NCC(=O)N[C@@H](CCCNC(=N)N)C(=O)N[C@@H](CC(C)C)C(=O)NCCOCCOCCNC(=O)CN1CCN(CC(=O)NCCOCCOCCNC(=O)C[C@H](O)[C@H](CC(C)C)NC(=O)[C@H](C)NC(=O)C[C@H](O)[C@H](CC(C)C)NC(=O)[C@@H](NC(=O)[C@@H](NC(=O)CC(C)C)C(C)C)C(C)C)CCN(CC(=O)NCCOCCOCCNC(=O)[C@H](CC(C)C)NC(=O)[C@H](CCCNC(=N)N)NC(=O)CNC(=O)[C@H](CCCNC(=N)N)NC(=O)[C@H](Cc2ccc(O)cc2)NC(=O)[C@H](Cc2c[nH]c3ccccc23)NC(C)=O)CCN(CC(=O)NCCOCCOCCNC(=O)[C@H](CC(C)C)NC(=O)[C@H](CCCNC(=N)N)NC(=O)CNC(=O)[C@H](CCCNC(=N)N)NC(=O)[C@H](Cc2ccc(O)cc2)NC(=O)[C@H](Cc2c[nH]c3ccccc23)NC(C)=O)CC1` [HHY-299, (AcWYRGRL)3-DOTA-Pepstatin A], the “inhibition of GAG release” value in data set [2] (24 hours after stimulation at pH 5.0) was found to be 34%; in data set [2] (48 hours after stimulation at pH 5.0), 18%. Also, the IC50 on Cathepsin D was 3.3 nM.
Consider `CC(=O)N[C@@H](Cc1ccc(O)cc1)C(=O)N[C@@H](CCCNC(=N)N)C(=O)N[C@@H](CC(C)C)C(=O)NCC(=O)N[C@@H](CCCNC(=N)N)C(=O)N[C@@H](Cc1c[nH]c2ccccc12)C(=O)NCCOCCOCCNC(=O)CCCCC[N+]1=C(/C=C/C=C/C=C2/N(C)c3ccc4ccccc4c3C2(C)C)C(C)(C)c2c1ccc1ccccc21` [HHY-258B, AcYRLGRW-Cy5.5] (Ac-YRLGRW-X4), for which the half-life in the data set “in vivo” (First Half Life (h)) is 2 h; in the data set “in vivo” (Terminal Half Life (h)), 35 h.
Consider AcNH-DOTA-Cy 5.5 [HHY-306], for which, in the data set on knee joints of mice (mouse, in vivo), the “First Half Life” value is 0.5 h and the “Terminal Half Life” value amounted to 9.8 h.
With `CC(=O)N[C@@H](Cc1ccc(O)cc1)C(=O)N[C@@H](CCCNC(=N)N)C(=O)N[C@@H](CC(C)C)C(=O)NCC(=O)N[C@@H](CCCNC(=N)N)C(=O)N[C@@H](Cc1c[nH]c2ccccc12)C(=O)NCCOCCOCCNC(=O)CN1CCN(CC(=O)NCCOCCOCN)CCN(CC(=O)NCCOCCOCCN)CCN(CC(=O)NCCOCCOCCNC(=O)CCCCCN2c3ccc4ccccc4c3C(C)(C)C2/C=C/C=C/C=C2/N(C)c3ccc4ccccc4c3C2(C)C)CC1` (some centres unmarked) [HHY-322, AcYRLGRW-DOTA-Cy5.5], the half-life in “in vivo” (First Half Life (h)) was 1.67 h; in “in vivo” (Terminal Half Life (h)), 13 h. Also, the “Terminal Half Life” value with knee joints of mice (male, C57BL/6J, mouse, in vivo) is on record as 12.5 h.
For `CC(=O)N[C@@H](Cc1c[nH]c2ccccc12)C(=O)N[C@@H](Cc1ccc(O)cc1)C(=O)N[C@@H](CCCNC(=N)N)C(=O)NCC(=O)N[C@@H](CCCNC(=N)N)C(=O)N[C@@H](CC(C)C)C(=O)NCCOCCOCCNC(=O)CCCCC[N+]1=C(/C=C/C=C/C=C2/N(C)c3ccc4ccccc4c3C2(C)C)C(C)(C)c2c1ccc1ccccc21` [HHY-259B, AcWYRGRL-Cy 5.5] (Ac-WYRGRL-X4), the values for the half-life in the data set “in vivo” (setting [4]) and in the data set “in vivo” (setting [5]) were 2.3 h and 205 h, respectively.
With `CC(=O)N[C@@H](Cc1ccc(O)cc1)C(=O)N[C@@H](CCCNC(=N)N)C(=O)N[C@@H](CC(C)C)C(=O)NCC(=O)N[C@@H](CCCNC(=N)N)C(=O)N[C@@H](Cc1c[nH]c2ccccc12)C(=O)NCCOCCOCCNC(=O)CN1CCN(CC(=O)NCCOCCOCCNC(=O)CCCCC[N+]2=C(/C=C/C=C/C=C3/N(C)c4ccc5ccccc5c4C3(C)C)C(C)(C)c3c2ccc2ccccc32)CCN(CC(=O)NCCOCCOCCNC(=O)[C@H](Cc2c[nH]c3ccccc23)NC(=O)[C@H](CCCNC(=N)N)NC(=O)CNC(=O)[C@H](CC(C)C)NC(=O)[C@H](CCCNC(=N)N)NC(=O)[C@H](Cc2ccc(O)cc2)NC(C)=O)CCN(CC(=O)NCCOCCOCCNC(=O)[C@H](Cc2c[nH]c3ccccc23)NC(=O)[C@H](CCCNC(=N)N)NC(=O)CNC(=O)[C@H](CC(C)C)NC(=O)[C@H](CCCNC(=N)N)NC(=O)[C@H](Cc2ccc(O)cc2)NC(C)=O)CC1` [HHY-293, (AcYRLGRW)3-DOTA-Cy5.5] (I: Ac-YRLGRW / II: Ac-YRLGRW / III: Ac-YRLGRW; linker I:C-II:C-III:C via X1), the half-life in the data set “in vivo” (First Half Life (h)) is 3 h; in the data set “in vivo” (Terminal Half Life (h)), 19 h. In addition, the “Terminal Half Life” value in the data set on knee joints of mice (male, C57BL/6J, mouse, in vivo) is on record as 18.75 h.
For `CC(C)CC(=O)N[C@H](C(=O)N[C@H](C(=O)N[C@@H](CC(C)C)[C@@H](O)CC(=O)N[C@@H](C)C(=O)N[C@@H](CC(C)C)[C@@H](O)CC(=O)O)C(C)C)C(C)C` [Pepstatin A, reference compound] (Isovaleryl-VV[Sta]A[Sta]-OH), in data set [2] (pH 5.0), the “effect on acid-stimulated GAG release / degradation (FIG. 3)” value was “no effect at all; also recorded: not effective”. Further, the solubility (as a rule, the concentration that dissolves in the medium under given conditions) in data set [3] was found to be 820 µg/mL (≈ 1200 µM).
As to `CC(=O)N[C@@H](Cc1c[nH]c2ccccc12)C(=O)N[C@@H](Cc1ccc(O)cc1)C(=O)N[C@@H](CCCNC(=N)N)C(=O)NCC(=O)N[C@@H](CCCNC(=N)N)C(=O)N[C@@H](CC(C)C)C(=O)NCCOCCOCCNC(=O)CN1CCN(CC(=O)NCCOCCOCCNC(=O)CCCCC[N+]2=C(/C=C/C=C/C=C3/N(C)c4ccc5ccccc5c4C3(C)C)C(C)(C)c3c2ccc2ccccc32)CCN(CC(=O)NCCOCCOCCNC(=O)[C@H](CC(C)C)NC(=O)[C@H](CCCNC(=N)N)NC(=O)CNC(=O)[C@H](CCCNC(=N)N)NC(=O)[C@H](Cc2ccc(O)cc2)NC(=O)[C@H](Cc2c[nH]c3ccccc23)NC(C)=O)CCN(CC(=O)NCCOCCOCCNC(=O)[C@H](CC(C)C)NC(=O)[C@H](CCCNC(=N)N)NC(=O)CNC(=O)[C@H](CCCNC(=N)N)NC(=O)[C@H](Cc2ccc(O)cc2)NC(=O)[C@H](Cc2c[nH]c3ccccc23)NC(C)=O)CC1` [HHY-290, (AcWYRGRL)3-DOTA-Cy5.5] (I: Ac-WYRGRL / II: Ac-WYRGRL / III: Ac-WYRGRL; linker I:C-II:C-III:C via X1), the half-life in “in vivo” (setting [4]) was 8.9 h; in “in vivo” (setting [5]), 1280 h. Moreover, the retained initial signal in the data set with knee joints of mice (8 days after intra-articular injection, 0.1 μmol, mouse knee) came to 40%.
